From patent US20040209808A1 (published 2004)

B1: SEQ ID NO 17 (peptide)
peptide: LEAKIWVVPAPS
notes: Selected from random M13KE phage-display libraries

These binders were tested against T1, HGPRBMY3 (human, UniProt Q9H1C0 1-372) (assay: cell-based phage-display panning on CHO-K1 cells transfected with HGPRBMY3; sequencing of eluted phage).
T1 construct: on CHO-NFAT/Galpha15 cells for the reporter assay; also called GPCR19; GPR92; not shown: its amino
Method: On the day of panning, growth medium was discarded and cells were washed with 10 ml PBS by allowing the buffer to flow over the cells. The PBS was removed and 10 ml Tris-EDTA detaching buffer (Gibco Cat. # 13150-016; no trypsin) was added for 2 min. Plates were tapped and/or pipetted up and down to detach cells. This was done quickly to minimize the exposure of the cells to this reagent. Cells were pelleted by centrifugation at 3K, and then washed with 20 ml PBS. Cells were resuspended cells in PBS with 2% milk blocking agent plus protease inhibitor (EDTA-free; Roche Cat. # 1 873 580). For each library, cell suspensions of ˜500 μl were used. Cells were blocked for 30-60 min with gentle rocking at room temperature. The integrin-coated wells were washed 3×in PBST, then blocked with 2% BSA in PBS for 30 min or more. To preadsorb against integrin, input phage was added to the integrin-coated wells, and incubated for 30 min or more.
At this stage, the blocked parental cells were divided into the required number of aliquots (500 μl aliquot/library). The phage supernatants were added from the integrin-preadsorption step. Preadsorption against the parental cells was carried out for 30 min or more with gentle rocking. The blocked transfected cells were divided into the required number of aliquots (500 μl aliquot per library). The transfected cells were pelleted, and the supernatant was discarded. The phage supernatants from the two preadsorption steps were added, and cells were incubated with gentle rocking for 2 h or more. Cells were washed 6-8× with PBST at 5 min intervals. Each wash was performed by gently pipetting the cells up and down, and cells were centrifuged at low speed. To recover binding phage from the washed cell pellets, 500 μl 6M urea, pH 3.0 was added for 15 min. This was neutralized with 10 μl 2 M Tris (not adjusted for pH). The phage in the eluate were titered and arnplified by standard procedures (NEB protocol for PhD phage libraries). In some cases, the eluate was viscous due to the presence of chromosomal DNA.
Standard procedures were used. Phage in eluates were infected into E. coli host strain ER2738 (New England Biolabs) for all M13KE-based libraries, and cells were plated for plaques. Colonies were grown in liquid medium and analyzed by standard sequencing procedures.

T1 sequence (Q9H1C0 whole entry): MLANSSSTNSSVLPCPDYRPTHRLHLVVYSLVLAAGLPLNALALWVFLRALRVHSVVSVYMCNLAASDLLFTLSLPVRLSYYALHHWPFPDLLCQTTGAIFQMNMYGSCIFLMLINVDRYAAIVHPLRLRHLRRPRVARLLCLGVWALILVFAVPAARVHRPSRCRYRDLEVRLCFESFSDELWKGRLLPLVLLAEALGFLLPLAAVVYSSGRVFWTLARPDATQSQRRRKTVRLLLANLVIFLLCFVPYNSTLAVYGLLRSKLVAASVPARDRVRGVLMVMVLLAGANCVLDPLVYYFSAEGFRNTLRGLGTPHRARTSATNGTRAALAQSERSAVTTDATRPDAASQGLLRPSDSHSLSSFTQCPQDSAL

| Binder | binding result |
| --- | --- |
| B1 | binds |
| KLWVPQNRPELV [SEQ ID NO 43] | binds |
| NAKLWQIPAIPH [SEQ ID NO 42] | binds |
| KVWIPTSTWLQT [SEQ ID NO 22] | binds |
| NAKVWTVPSKPP [SEQ ID NO 21] | binds |
| KLWDITAPLPKP [SEQ ID NO 41] | binds |
| FPHKLWVLPVKT [SEQ ID NO 37] | binds |
| KLWTIPSNDYPP [SEQ ID NO 38] | binds |
| HLKVWEVRSPGP [SEQ ID NO 20] | binds |
| TGQTKIWYPHST [SEQ ID NO 18] | binds |
| ADVLHATPSEKVWLL [SEQ ID NO 24] | binds |
| KVVDSNHKVWLVSQT [SEQ ID NO 25] | binds |
| VYSKVWLLPAGQ [SEQ ID NO 19] | binds |
| TSTPHRVWQLPV [SEQ ID NO 45] | binds |
| KVWSLDISAPQH [SEQ ID NO 23] | binds |
| KLWILADNFTNR [SEQ ID NO 35] | binds |
| KLWIPHTSQPFL [SEQ ID NO 40] | binds |
| TTPHRVWNLPLEAQQ [SEQ ID NO 46] | binds |
| INSPHELKKLWLLPP [SEQ ID NO 36] | binds |
| NHDNTKKVWILA [SEQ ID NO 26] | binds |
